Reference: the supplement of paper PMC7877785
± gives the uncertainty stated by the source.

Assay: self-splicing fitness, log relative to wild type (ln ratio); higher = more splicing; Tetrahymena group I intron in knt gene, E. coli kanamycin selection, DiMSum; sequences stand for … in CUCUCU…GGAGGGAAAAGUUAUCAGGCAUGCACCUGGUAGCUAGUCUUUAAACCAAUAGAUUGCAUCGGUUUAAAAGGCAAGACCGUCAAAUUGCGGGAAAGGGGUCAACAGCCGUUCAGUACCAAGUCUCAGGGGAAACUUUGAGAUGGCCUUGCAAAGGGUAUGGUAAUAAGCUGACGGACAUGGUCCUAACCACGCAGCCAAGUCCUAAGUCAACAGAUCUUCUGUUGAUAUGGAUGCAGUUCACAGACUAAAUGUCGGUCGGGGAAGAUGUAUUCUUCUCAUAAGAUAUAGUCGGACCUCUCCUUAAUGGGAGCUAGCGGAUGAAGUGAUGCAACACUGGAGCCGCUGGGAACUAAUUUGUAUGCGAAAGUAUAUUGAUUAGUUUUGGAGUACUCGUGGUCG
How it was run: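 Fitness was computed with DiMSum as the error-weighted combination of replicate fold changes, kanamycin versus none, each normalised to wild type. The library randomised all eight intron nucleotides of the P1ex region, with the intron placed in the knt kanamycin-resistance gene on pET-22b(+) in E. coli BL21(DE3). Six replicate transformations were grown overnight at 37°C or 30°C on LB agar with or without 25 μg/mL kanamycin, plus 100 μg/mL carbenicillin, 50 μM IPTG and 0.2% rhamnose. Pooled colonies were amplicon-sequenced on an Illumina HiSeq 2500.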

| Sequence | self-splicing fitness (ln) (30 °C) | self-splicing fitness (ln) (37 °C) |
| --- | --- | --- |
| ACGAAGCAAUAUUACGAGCG | -0.87 ± 0.075 | -0.411 ± 0.12 |
| AGAGAGCAAUAUUACGAACC | -2.98 ± 0.39 | -1.57 ± 0.38 |
| CGAUAGCAAUAUUACGUCGU | -4.24 ± 0.2 | -3.05 ± 0.21 |
| GCGUAGCAAUAUUACGUCAU | -3.22 ± 0.26 | -2.25 ± 0.3 |
| CUGCAGCAAUAUUACGUAUU | -4.27 ± 0.18 | -3.51 ± 0.19 |
| UCUCAGCAAUAUUACGUGAU | -4.03 ± 0.21 | -1.85 ± 0.13 |
| UGGUAGCAAUAUUACGCCCA | -0.775 ± 0.21 | -1.14 ± 0.23 |
| CCUCAGCAAUAUUACGGAUA | -1.87 ± 0.15 | -2.41 ± 0.24 |
| UUGUAGCAAUAUUACGAGGU | -2.82 ± 0.2 | -2.61 ± 0.36 |
| UCCUAGCAAUAUUACGCCAA | -3.18 ± 0.28 | -2.5 ± 0.25 |
| UUCAAGCAAUAUUACGCACG | -1.11 ± 0.11 | -0.411 ± 0.14 |
| UUUUAGCAAUAUUACGCAGA | -0.713 ± 0.21 | -0.506 ± 0.16 |
| AUCAAGCAAUAUUACGCCAU | -2.88 ± 0.19 | -1.44 ± 0.13 |
| AAGAAGCAAUAUUACGGCUG | -0.496 ± 0.077 | -0.25 ± 0.12 |
| CUCCAGCAAUAUUACGAGGG | -3.65 ± 0.17 | -2.89 ± 0.25 |
| GUGUAGCAAUAUUACGGAAG | -1.96 ± 0.19 | -0.206 ± 0.19 |
| AUUAAGCAAUAUUACGUUUA | -1.61 ± 0.14 | -1.54 ± 0.15 |
| UAGCAGCAAUAUUACGAUAA | -1.07 ± 0.12 | 0.133 ± 0.13 |
| UAAUAGCAAUAUUACGAGGC | -3.59 ± 0.35 | -1.46 ± 0.33 |
| UGCUAGCAAUAUUACGAUGU | -4.19 ± 0.46 | -2.59 ± 0.38 |
| UAACAGCAAUAUUACGCCCA | -0.674 ± 0.12 | 0.423 ± 0.15 |
| GAAUAGCAAUAUUACGCACG | -1.22 ± 0.15 | -0.764 ± 0.2 |
| UAUUAGCAAUAUUACGGAGG | -2.95 ± 0.28 | -1.84 ± 0.34 |
| AUGGAGCAAUAUUACGUACU | -0.848 ± 0.16 | -0.491 ± 0.18 |
| CGCCAGCAAUAUUACGCUGA | -3.51 ± 0.24 | -2.24 ± 0.28 |
| AUUAAGCAAUAUUACGACAC | -0.804 ± 0.13 | -0.46 ± 0.14 |

| Sequence | self-splicing fitness (ln) (30 °C) | self-splicing fitness (ln) (37 °C) |
| --- | --- | --- |
| UAAAAGCAAUAUUACGCGGU | -3.58 ± 0.29 | -2.34 ± 0.27 |
| CACGAGCAAUAUUACGGUGU | -3.93 ± 0.22 | -2.33 ± 0.21 |
| UCGUAGCAAUAUUACGCCGA | -0.812 ± 0.31 | -2.03 ± 0.27 |
| AACUAGCAAUAUUACGCUCG | -0.797 ± 0.1 | -0.51 ± 0.13 |
| GUAGAGCAAUAUUACGGCUC | -1.57 ± 0.26 | -0.26 ± 0.45 |
| GCGAAGCAAUAUUACGCUAU | -2.45 ± 0.1 | -1.25 ± 0.11 |
| GUGAAGCAAUAUUACGGGUA | -0.994 ± 0.068 | -1.23 ± 0.1 |
| UAAUAGCAAUAUUACGAGAU | -4.03 ± 0.43 | -2.38 ± 0.47 |
| CGGGAGCAAUAUUACGUAGG | -1.91 ± 0.099 | -1.6 ± 0.17 |
| UGAAAGCAAUAUUACGGUAU | -2.53 ± 0.21 | -0.827 ± 0.16 |
| GCCUAGCAAUAUUACGGCGA | -2.64 ± 0.4 | -1.41 ± 0.28 |
| ACAAAGCAAUAUUACGACCU | 0.0994 ± 0.076 | 0.311 ± 0.091 |
| CCGAAGCAAUAUUACGUCCU | – | -1.89 ± 0.28 |
| UAGGAGCAAUAUUACGAGGA | -2.78 ± 0.37 | – |
| AGUCAGCAAUAUUACGCACA | -0.062 ± 0.12 | -0.284 ± 0.14 |
| AGUCAGCAAUAUUACGCCUC | -2.68 ± 0.32 | -1 ± 0.42 |
| AGCCAGCAAUAUUACGGGAC | -2.67 ± 0.22 | -2.7 ± 0.27 |
| GUAUAGCAAUAUUACGUGAG | -1.85 ± 0.13 | -1.42 ± 0.17 |
| CAUAAGCAAUAUUACGAACC | – | -1.26 ± 0.35 |
| UCUCAGCAAUAUUACGACAG | -2.76 ± 0.17 | -2.33 ± 0.17 |
| ACACAGCAAUAUUACGAAGU | -3.43 ± 0.14 | -2.21 ± 0.15 |
| GACGAGCAAUAUUACGCAUU | -2.74 ± 0.21 | -2.44 ± 0.21 |
| CGCUAGCAAUAUUACGACGG | -0.226 ± 0.11 | 0.553 ± 0.14 |
| CCGCAGCAAUAUUACGCCAU | -3.66 ± 0.15 | -3.07 ± 0.19 |
| CGACAGCAAUAUUACGGACU | -0.957 ± 0.072 | -0.875 ± 0.11 |
| UUCAAGCAAUAUUACGUCAC | -3.57 ± 0.34 | -2.42 ± 0.39 |

| Sequence | self-splicing fitness (ln) (30 °C) | self-splicing fitness (ln) (37 °C) |
| --- | --- | --- |
| AAUUAGCAAUAUUACGCUCC | -1.09 ± 0.36 | -0.0599 ± 0.35 |
| UUUAAGCAAUAUUACGUUCG | -0.639 ± 0.093 | -0.169 ± 0.12 |
| UGGGAGCAAUAUUACGGUUA | -3.22 ± 0.37 | -1.65 ± 0.16 |
| UAACAGCAAUAUUACGCGCU | -1.93 ± 0.096 | -0.612 ± 0.11 |
| UAACAGCAAUAUUACGCGCA | -0.471 ± 0.078 | 0.0314 ± 0.12 |
| GCCUAGCAAUAUUACGCACG | -1.79 ± 0.23 | -1.43 ± 0.19 |
| CAGCAGCAAUAUUACGUCCG | 0.0818 ± 0.076 | 0.283 ± 0.086 |
| GGGGAGCAAUAUUACGCGGC | – | -1.24 ± 0.49 |
| GGGCAGCAAUAUUACGCCCA | -2.18 ± 0.48 | -1.26 ± 0.32 |
| UGGAAGCAAUAUUACGUCGA | -1.02 ± 0.072 | -0.272 ± 0.089 |
| CGAUAGCAAUAUUACGACAC | -3.23 ± 0.49 | – |
| AUGGAGCAAUAUUACGGGUA | -3.28 ± 0.27 | -3.06 ± 0.35 |
| AUUCAGCAAUAUUACGAAUC | -2.12 ± 0.2 | -0.519 ± 0.32 |
| AGAUAGCAAUAUUACGGAUG | -2.96 ± 0.19 | -2.3 ± 0.28 |
| AAGGAGCAAUAUUACGAGAG | -1.62 ± 0.17 | -2.58 ± 0.34 |
| CGCCAGCAAUAUUACGGCCC | -2.2 ± 0.12 | -0.207 ± 0.25 |
| UGCUAGCAAUAUUACGCUAG | -2.28 ± 0.22 | -2.65 ± 0.34 |
| GGGAAGCAAUAUUACGCGUG | -1.02 ± 0.076 | -0.978 ± 0.096 |
| GAACAGCAAUAUUACGUCAC | -3.44 ± 0.23 | -0.689 ± 0.17 |
| CCGCAGCAAUAUUACGGUUG | -2.18 ± 0.066 | -1.24 ± 0.085 |
| GCAAAGCAAUAUUACGCACU | -0.557 ± 0.078 | 0.031 ± 0.092 |
| UCCUAGCAAUAUUACGUUGC | -3.64 ± 0.16 | -2.74 ± 0.19 |
| UUUCAGCAAUAUUACGCACU | -0.429 ± 0.077 | -0.09 ± 0.092 |
| CUCUAGCAAUAUUACGUUUU | -4.1 ± 0.22 | -3.15 ± 0.16 |
